Measurements published in article PMC4856396, “The Staphylococcus aureus Global Regulator MgrA Modulates Clumping and Virulence by Controlling Surface Protein Expression”.

Legend:
MgrA [1] = target: T1, MgrA (Staphylococcus aureus LAC, UniProt P0C1S0 1-147); test: EMSA; 0-2 uM MgrA, 50 nM probe; conditions: protein: recombinant; tags: His6-MBP removed by Tev cleavage (untagged; possible linker residues); chain copies: 2; label: IRDye 700 at one end (HC487); blunt
T1 sequence: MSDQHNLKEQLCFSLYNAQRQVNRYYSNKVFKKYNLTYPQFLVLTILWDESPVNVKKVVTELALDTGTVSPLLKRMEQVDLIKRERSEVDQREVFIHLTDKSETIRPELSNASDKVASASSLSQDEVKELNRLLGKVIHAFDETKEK

MgrA [2] = target: T1, MgrA; test: competition; 10-fold excess over labeled Pebh; conditions: protein: recombinant; tags: His6-MBP removed by Tev cleavage (untagged; possible linker residues); chain copies: 2; blunt
MgrA [3] = target: T1, MgrA; test: competition; 10-fold excess over labeled sraP P2 probe; conditions: protein: recombinant; tags: His6-MBP removed by Tev cleavage (untagged; possible linker residues); chain copies: 2; blunt
MgrA [4] = target: T1, MgrA; test: EMSA; 0-2 uM MgrA, 50 nM probe; dose-dependent; conditions: protein: recombinant; tags: His6-MBP removed by Tev cleavage (untagged; possible linker residues); chain copies: 2; label: IRDye 700 on HC346; blunt

B1: Pebh probe (ebh probe2) (dsDNA)
DNA 1: GAGCATAAATAAATTGTTCAACACATAGTTGTAATGTGTTTCAATACTTT
DNA 2: AAAGTATTGAAACACATTACAACTATGTGTTGAACAATTTATTTATGCTC
binding result (MgrA [1]): binds

B2: ebh specific competitor SP (dsDNA)
DNA 1: B1 DNA 1
DNA 2: B1 DNA 2
binding result (MgrA [2]): binds

B3: sraP mutated competitor MP (sraP probe5 mut) (dsDNA)
DNA 1: TTTGTAGATGTCAAGCACCTCATTAAATTGAATAGTGGCATATATTATAA
DNA 2: TTATAATATATGCCACTATTCAATTTAATGAGGTGCTTGACATCTACAAA
binding result (MgrA [3]): no binding

B4: non-specific competitor NSP (sraP probe 6) (dsDNA)
DNA 1: CTGGAAAAAATTGGGTAAAATCCGGAATTAAAGAAATAGAAATGTTCAAA
DNA 2: TTTGAACATTTCTATTTCTTTAATTCCGGATTTTACCCAATTTTTTCCAG
binding result (MgrA [2]): no binding

B5: sraP P2 probe (sraP probe5) (dsDNA)
DNA 1: TTTGTATCAAAAAAGAGTTGTATTAAATTGAATAGTGGCATATATTATAA
DNA 2: TTATAATATATGCCACTATTCAATTTAATACAACTCTTTTTTGATACAAA
binding result (MgrA [4]): binds

B6: sraP specific competitor SP (dsDNA)
DNA 1: B5 DNA 1
DNA 2: B5 DNA 2
binding result (MgrA [3]): binds
